Read-outs that look alike come from different tables or passages of the source.

For orientation: Kd means a measure of binding affinity in units of concentration. Lower therefore signals higher affinity. By koff is commonly meant a measure of how fast the partners let go of each other. A low value points to a long-lived complex. As usually defined, the kon is a measure of how fast the partners come together. Read a low kon as slow association. One may read the IC50 as the concentration at which inhibition is half-maximal. A low value points to greater potency in that assay.

In experiment [1] the target is T1, human IGF-1R extracellular domain (Homo sapiens, UniProt P08069). In words: SPR. (In general: Surface plasmon resonance follows binding to a sensor surface in real time, without labels.)
Experiment [2] has as its target T2, IGF-1R on tumor cells (A549, TC-71) (Homo sapiens (A549, TC-71 cells), UniProt P08069). Kind of experiment: flow cytometry on cells. (A flow cytometer gives signals particle by particle.)
The target of experiment [3] is T1, human IGF-1R extracellular domain. Kind of experiment: SPR. The source holds these as a separate data set.
Experiment [4] deals with T2, IGF-1R on tumor cells (A549, TC-71). In words: flow cytometry on cells. The source holds these as a separate data set.

T2 sequence (P08069 31-1367): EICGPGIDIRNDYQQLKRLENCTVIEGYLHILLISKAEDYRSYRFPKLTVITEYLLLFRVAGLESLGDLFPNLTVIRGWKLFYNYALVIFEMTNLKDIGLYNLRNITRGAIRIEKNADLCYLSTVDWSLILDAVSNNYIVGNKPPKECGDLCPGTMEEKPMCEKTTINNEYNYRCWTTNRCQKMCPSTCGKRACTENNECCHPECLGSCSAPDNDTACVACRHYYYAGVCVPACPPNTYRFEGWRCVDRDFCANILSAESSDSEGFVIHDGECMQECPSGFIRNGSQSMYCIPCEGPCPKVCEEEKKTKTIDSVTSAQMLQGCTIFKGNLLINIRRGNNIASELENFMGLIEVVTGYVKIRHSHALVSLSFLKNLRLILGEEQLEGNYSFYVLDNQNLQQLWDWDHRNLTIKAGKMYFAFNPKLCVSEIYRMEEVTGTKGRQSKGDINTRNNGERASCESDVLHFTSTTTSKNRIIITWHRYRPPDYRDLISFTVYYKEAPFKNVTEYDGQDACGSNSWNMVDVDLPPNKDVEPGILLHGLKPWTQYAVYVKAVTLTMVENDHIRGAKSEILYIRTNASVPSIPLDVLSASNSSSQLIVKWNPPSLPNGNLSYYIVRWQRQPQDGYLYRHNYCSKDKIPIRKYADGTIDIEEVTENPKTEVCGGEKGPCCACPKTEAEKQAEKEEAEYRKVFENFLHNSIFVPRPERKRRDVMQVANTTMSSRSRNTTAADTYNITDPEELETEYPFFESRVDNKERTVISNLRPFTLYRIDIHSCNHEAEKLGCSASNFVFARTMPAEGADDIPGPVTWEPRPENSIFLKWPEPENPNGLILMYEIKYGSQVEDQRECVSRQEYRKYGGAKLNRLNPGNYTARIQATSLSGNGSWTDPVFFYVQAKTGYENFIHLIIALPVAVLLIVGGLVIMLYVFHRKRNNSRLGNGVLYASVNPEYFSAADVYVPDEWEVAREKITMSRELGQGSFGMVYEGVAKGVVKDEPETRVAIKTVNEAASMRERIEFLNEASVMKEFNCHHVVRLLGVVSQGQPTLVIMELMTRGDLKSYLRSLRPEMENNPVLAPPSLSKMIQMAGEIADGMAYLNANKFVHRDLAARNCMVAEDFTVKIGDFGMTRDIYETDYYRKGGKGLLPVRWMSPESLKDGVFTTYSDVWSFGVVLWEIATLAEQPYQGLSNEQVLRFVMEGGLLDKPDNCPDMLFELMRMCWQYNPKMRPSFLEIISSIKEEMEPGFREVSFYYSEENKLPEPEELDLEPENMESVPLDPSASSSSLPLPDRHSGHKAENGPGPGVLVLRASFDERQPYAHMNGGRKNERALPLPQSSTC
T1 sequence (P08069 741-935): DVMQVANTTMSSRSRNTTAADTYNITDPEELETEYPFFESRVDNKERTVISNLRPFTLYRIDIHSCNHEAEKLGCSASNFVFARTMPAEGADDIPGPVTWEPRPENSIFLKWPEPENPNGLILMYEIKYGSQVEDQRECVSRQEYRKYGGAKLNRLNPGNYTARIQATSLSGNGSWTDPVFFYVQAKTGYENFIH

B1: F13B5 Fab fragment (Fab, V domains shown)
VH: QVELVESGGGVVQPGRSQRLSCAASGFTFSSYGMHWVRQAPGKGLEWVAIIWFDGSSTYYADSVRGRFTISRDNSKNTLYLQMNSLRAEDTAVYFCARELGRRYFDLWGRGTLVSVSS
VL: EIVLTQSPATLSLSPGERATLSCRASQSVSSYLAWYQQKPGQAPRLLIYQASKRATGIPARFSGSGSGTDFTLTISSLEPEDFAVYYCQQRSKYPPWTFGQGTKVESK
With B1, in experiment [1], binding was put at a Kd of 1.47 nM, the koff amounted to 0.00025 s⁻¹ and the kon worked out at 170000 M⁻¹ s⁻¹.

B2: R1507, bivalent monospecific anti-IGF-1R antibody (antibody, V domains shown)
VH: QVELVESGGGVVQPGRSQRLSCAASGFTFSSYGMHWVRQAPGKGLEWVAIIWFDGSSTYYADSVRGRFTISRDNSKNTLYLQMNSLRAEDTAVYFCARELGRRYFDLWGRGTLVSVSS
VL: EIVLTQSPATLSLSPGERATLSCRASQSVSSYLAWYQQKPGQAPRLLIYDASKRATGIPARFSGSGSGTDFTLTISSLEPEDFAVYYCQQRSKWPPWTFGQGTKVESK
The molecule B2 gave an IC50 in experiment [2] of around 1 nM. In experiment [3], this molecule registered a Kd of 5 nM.

B3: R1507 Fab fragment (Fab, V domains shown)
VH: QVELVESGGGVVQPGRSQRLSCAASGFTFSSYGMHWVRQAPGKGLEWVAIIWFDGSSTYYADSVRGRFTISRDNSKNTLYLQMNSLRAEDTAVYFCARELGRRYFDLWGRGTLVSVSS
VL: EIVLTQSPATLSLSPGERATLSCRASQSVSSYLAWYQQKPGQAPRLLIYDASKRATGIPARFSGSGSGTDFTLTISSLEPEDFAVYYCQQRSKWPPWTFGQGTKVESK
For the molecule B3, the “fold reduction of binding against bivalent R1507” value in experiment [2] is around 34 fold. In experiment [1], this molecule displayed a Kd of 18 nM, a koff of 0.00271 s⁻¹ and a kon of 153000 M⁻¹ s⁻¹. Further, in experiment [4], the “fold reduction of binding against bivalent R1507” value is around 10 fold.
